Experimental data reported in US20150376674.

Target: tetranectin-apolipoprotein A-I fusion polypeptide precursor polypeptide

B1: IgA-protease protein from Neisseria gonorrhoeae (protein)
chain: ALVRDDVDYQIFRDFAENKGKFFVGATDLSVKNKRGQNIGNALSNVPMIDFSVADVNKRIATVVDPQYAVSVKHAKAEVHTFYYGQYNGHNDVADKENEYRVVEQNNYEPHKAWGASNLGRLEDYNMARFNKFVTEVAPIAPTDAGGGLDTYKDKNRFSSFVRIGAGRQLVYEKGVYHQEGNEKGYDLRDLSQAYRYAIAGTPYKDINIDQTMNTEGLIGFGNHNKQYSAEELKQALSQDALTNYGVLGDSGSPLFAFDKQKNQWVFLGTYDYWAGYGKKSWQEWNIYKKEFADKIKQHDNAGTVKGNGEHHWKTTGTNSHIGSTAVRLANNEGDANNGQNVTFEDNGTLVLNQNINQGAGGLFFKGDYTVKGANNDITWLGAGIDVADGKKVVWQVKNPNGDRLAKIGKGTLEINGTGVNQGQLKVGDGTVILNQKADADKKVQAFSQVGIVSGRGTLVLNSSNQINPDNLYFGFRGGRLDANGNDLTFEHIRNVDEGARIVNHNTDHASTITLTGKSLITNPNSLSVHSIQNDYDEDDYSYYYRPRRPIPQGKDLYYKNYRYYALKSGGRLNAPMPENGVAENNDWIFMGYTQEEARKNAMNHKNNRRIGDFGGFFDEENGKGHNGALNLNFNGKSAQKRFLLTGGANLNGKISVTQGNVLLSGRPTPHARDFVNKSSARKDAHFSKNNEVVFEDDWINRTFKAAEIAVNQSASFSSGRNVSDITANITATDNAKVNLGYKNGDEVCVRSDYTGYVTCNTGNLSDKALNSFDATRINGNVNLNQNAALVLGKAALWGKIQGQGNSRVSLNQHSKWHLTGDSQVHNLSLADSHIHLNNASDAQSANKYHTIKINHLSGNGHFHYLTDLAKNLGDKVLVKESASGHYQLHVQNKTGEPNQEGLDLFDASSVQDRSRLFVSLANHYVDLGALRYTIKTENGITRLYNPYAGNGRPVKPAP
  Cleavage activity: Cleavage activity was in the expected range.
